Molecular target: T1, mouse core RAG1 (384–1008aa) (mouse, UniProt P15919 384-1008)
T1 sequence (looked up): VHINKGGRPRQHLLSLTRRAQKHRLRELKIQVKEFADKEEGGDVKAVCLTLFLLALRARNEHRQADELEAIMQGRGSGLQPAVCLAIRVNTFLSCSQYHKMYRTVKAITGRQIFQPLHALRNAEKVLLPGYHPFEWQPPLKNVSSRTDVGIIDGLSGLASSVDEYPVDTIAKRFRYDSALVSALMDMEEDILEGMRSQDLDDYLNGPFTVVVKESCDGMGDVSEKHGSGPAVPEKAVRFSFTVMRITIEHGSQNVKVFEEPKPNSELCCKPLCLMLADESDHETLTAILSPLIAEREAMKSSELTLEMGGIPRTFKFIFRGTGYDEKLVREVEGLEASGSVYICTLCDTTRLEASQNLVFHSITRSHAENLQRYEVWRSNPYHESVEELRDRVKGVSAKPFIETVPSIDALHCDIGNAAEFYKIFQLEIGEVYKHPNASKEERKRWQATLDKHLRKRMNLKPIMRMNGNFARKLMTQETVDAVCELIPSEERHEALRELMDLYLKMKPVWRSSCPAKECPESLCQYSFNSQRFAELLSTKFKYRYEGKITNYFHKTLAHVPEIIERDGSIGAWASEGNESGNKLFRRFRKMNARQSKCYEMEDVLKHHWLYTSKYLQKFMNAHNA
Assay: crystal structure

binding result: binds
B1: mouse core RAG2 (1–387aa), M1V (domain or fragment, UniProt P21784 1-387, looked up)
chain: VSLQMVTVGHNIALIQPGFSLMNFDGQVFFFGQKGWPKRSCPTGVFHFDIKQNHLKLKPAIFSKDSCYLPPLRYPATCSYKGSIDSDKHQYIIHGGKTPNNELSDKIYIMSVACKNNKKVTFRCTEKDLVGDVPEPRYGHSIDVVYSRGKSMGVLFGGRSYMPSTQRTTEKWNSVADCLPHVFLIDFEFGCATSYILPELQDGLSFHVSIARNDTVYILGGHSLASNIRPANLYRIRVDLPLGTPAVNCTVLPGGISVSSAILTQTNNDEFVIVGGYQLENQKRMVCSLVSLGDNTIEISEMETPDWTSDIKHSKIWFGSNMGNGTIFLGIPGDNKQAMSEAFYFYTLRCSEEDLSEDQKIVSNSQTSTEDPGDSTPFEDSEEFCFS

From paper PMC4342785 (Nature, 2015)
